This assay deals with CD44 (isoform 4), Fc-fused (human). The assay can be described thus: SPR; apparent KD, dimeric Fc-fused target.
CD44 (isoform 4), Fc-fused (human), sequence (chain, as listed by the source): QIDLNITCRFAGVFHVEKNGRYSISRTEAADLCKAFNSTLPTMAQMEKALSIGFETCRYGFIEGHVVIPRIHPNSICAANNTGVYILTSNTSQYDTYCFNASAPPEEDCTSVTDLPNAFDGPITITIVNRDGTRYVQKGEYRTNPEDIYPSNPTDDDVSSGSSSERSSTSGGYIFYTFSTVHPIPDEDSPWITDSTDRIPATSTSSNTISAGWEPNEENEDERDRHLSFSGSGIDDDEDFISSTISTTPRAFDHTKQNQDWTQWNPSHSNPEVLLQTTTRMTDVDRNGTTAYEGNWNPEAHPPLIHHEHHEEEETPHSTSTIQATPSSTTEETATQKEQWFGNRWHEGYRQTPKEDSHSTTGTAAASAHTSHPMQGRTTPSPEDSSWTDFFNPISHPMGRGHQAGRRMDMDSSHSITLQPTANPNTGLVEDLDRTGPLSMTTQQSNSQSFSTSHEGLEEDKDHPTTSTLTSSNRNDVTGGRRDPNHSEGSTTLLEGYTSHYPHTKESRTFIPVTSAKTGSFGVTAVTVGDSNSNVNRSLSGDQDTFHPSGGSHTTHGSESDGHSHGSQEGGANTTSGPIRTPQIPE

B1: BIWA4 (bivatuzumab), as human IgG4 (antibody, V domains shown)
VH: EVQLVESGGGLVKPGGSLRLSCAASGFTFSSYDMSWVRQAPGKGLEWVSTISSGGSYTYYLDSIKGRFTISRDNAKNSLYLQMNSLRAEDTAVYYCARQGLDYWGRGTLVTVSS
VL: EIVLTQSPATLSLSPGERATLSCSASSSINYIYWYQQKPGQAPRLLIYLTSNLASGVPARFSGSGSGTDFTLTISSLEPEDFAVYYCLQWSSNPLTFGGGTKVEIK
As to B1, the Kd came out at 0.048 µM.
